Source: patent US20190359693A1

Tests used:
Assay in all cases: cell-based or functional assay
[1] = target: hemagglutinin (HA) of influenza virus H3N2 A/Brisbane/10/07 (influenza A virus)
[2] = target: hemagglutinin (HA) of influenza virus H5N1 A/Vietnam/1194/04 (influenza A virus)
[3] = target: hemagglutinin (HA) of influenza virus H7N3 A/NIBRG/60 (A/mallard/Netherlands/12/00) (influenza A virus)
[4] = target: hemagglutinin (HA) of influenza virus B/Lee/40 (Old) (influenza B virus) (UniProt P03460)
hemagglutinin (HA) of influenza virus B/Lee/40 (Old) (influenza B virus), sequence (P03460 16-584 limits assumed): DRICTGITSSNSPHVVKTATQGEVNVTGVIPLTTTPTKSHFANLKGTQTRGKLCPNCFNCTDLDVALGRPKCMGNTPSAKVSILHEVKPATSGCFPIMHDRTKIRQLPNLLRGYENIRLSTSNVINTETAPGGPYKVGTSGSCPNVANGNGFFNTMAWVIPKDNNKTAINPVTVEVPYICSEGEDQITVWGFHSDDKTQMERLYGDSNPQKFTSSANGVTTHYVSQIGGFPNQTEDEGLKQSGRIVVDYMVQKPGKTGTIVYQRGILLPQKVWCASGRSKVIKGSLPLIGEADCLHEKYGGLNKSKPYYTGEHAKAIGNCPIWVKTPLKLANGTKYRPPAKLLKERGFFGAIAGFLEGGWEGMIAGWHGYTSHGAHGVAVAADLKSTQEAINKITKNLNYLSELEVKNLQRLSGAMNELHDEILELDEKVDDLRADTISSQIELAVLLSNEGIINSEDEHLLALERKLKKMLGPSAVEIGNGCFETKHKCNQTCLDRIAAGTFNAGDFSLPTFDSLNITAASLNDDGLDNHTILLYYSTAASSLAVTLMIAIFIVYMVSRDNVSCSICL

[5] = target: hemagglutinin (HA) of influenza virus B/Florida/04/06 (Yamagata) (influenza B virus)
[6] = target: hemagglutinin (HA) of influenza virus H1N1 A/New Caledonia/20/99 (influenza A virus)
[7] = target: hemagglutinin (HA) of influenza virus H3N2 A/Wisconsin/67/05 (influenza A virus)
[8] = target: hemagglutinin (HA) of influenza virus H1N1 A/Puerto Rico/8/34-MA (influenza A virus)

B1: MD2308 (bispecific antibody)
chain: EVQLVESGGGLVQAGDSLRISCAASGRTLSIYSMGWFRQAPGKEREFVATIGWNSGRTFYPDSLKGRFTISRDNARNTLYLQMNNLRPEDTAVYYCAAAKGPLRLSSQADYWGQGTQVTVSSGGGGSGGGGSEVQLVESGGGLVQPGGSLRLSCAATGFTLENKAIGWFRQTPGSEREGVLCISKSGSWTYYTDSMRGRFTISRDNAENTVYLQMDSLKPEDTAVYYCATTTAGGGLCWDGTTFSRLASSWGQGTQVTVSSGGGGSGGGGSEVQLVESGGGLVQAGDSLRLSCAASGPTFGMSAMGWFRQAPGKEREFVAAISGLGNPNYSDDVKGRFTISRENGRNTVYLQMNSLKPEDTAVYYCAQRKVYHVQGGDRPQAYDYWGQGTQVTVSS
B1 showed an average neutralization titer [1] of 15.3 nM, an average neutralization titer [2] of 21.6 nM and an average neutralization titer [3] of 12.8 nM.

B2: MD1223 (bispecific antibody)
chain: EVQLVESGGGLVQPGGSLKLSCAASGFTFSTSWMYWLRQAPGKGLEWVSVINTDGGTYYADSVKDRFTISRDNAKDTLYLQMSSLKSEDTAVYYCAKDWGGPEPTRGQGTQVTVSSAAAGGGGSGGGGSGGGGSGGGGSGGGGSGGGGSGGGGSEVQLVESGGGLVQPGGSLRLSCAATGFTLENKAIGWFRQTPGSEREGVLCISKSGSWTYYTDSMRGRFTISRDNAENTVYLQMDSLKPEDTAVYYCATTTAGGGLCWDGTTFSRLASSWGQGTQVTVSS
For B2, the neutralization titer [4] was 18 nM and the neutralization titer [5] was 2.3 nM.

B3: MD2311 (bispecific antibody)
chain: EVQLVESGGGLVQAGDSLRLSCAASGPTFGMSAMGWFRQAPGKEREFVAAISGLGNPNYSDDVKGRFTISRENGRNTVYLQMNSLKPEDTAVYYCAQRKVYHVQGGDRPQAYDYWGQGTQVTVSSGGGGSGGGGSEVQLVESGGGLVQPGGSLRLSCAATGFTLENKAIGWFRQTPGSEREGVLCISKSGSWTYYTDSMRGRFTISRDNAENTVYLQMDSLKPEDTAVYYCATTTAGGGLCWDGTTFSRLASSWGQGTQVTVSSGGGGSGGGGSEVQLVESGGGLVQAGDSLRISCAASGRTLSIYSMGWFRQAPGKEREFVATIGWNSGRTFYPDSLKGRFTISRDNARNTLYLQMNNLRPEDTAVYYCAAAKGPLRLSSQADYWGQGTQVTVSS
For B3, the average neutralization titer [1] was 21.6 nM, the average neutralization titer [2] was 12.8 nM and the average neutralization titer [3] was 15.3 nM.

B4: MD2301 (bispecific antibody)
chain: EVQLVESGGGLVQPGGSLRLSCAATGFTLENKAIGWFRQTPGSEREGVLCISKSGSWTYYTDSMRGRFTISRDNAENTVYLQMDSLKPEDTAVYYCATTTAGGGLCWDGTTFSRLASSWGQGTQVTVSSGGGGSGGGGSEVQLVESGGGLVQPGGSLRLSCAVSISIFDIYAMDWYRQAPGKQRDLVATSFRDGSTNYADSVKGRFTISRDNAKNTLYLQMNSLKPEDTAVYLCHVSLYRDPLGVAGGMGVYWGKGALVTVSSGGGGSGGGGSEVQLVESGGGLVQAGGSLKLSCAASGRTYAMGWFRQAPGKEREFVAHINALGTRTYYSDSVKGRFTISRDNAKNTEYLEMNNLKPEDTAVYYCTAQGQWRAAPVAVAAEYEFWGQGTQVTVSS
Binder B4 has an average neutralization titer [5] of 412 nM, an average neutralization titer [6] of 14.7 nM and an average neutralization titer [7] of 34.7 nM.

B5: MD2310 (bispecific antibody)
chain: EVQLVESGGGLVQPGGSLRLSCAATGFTLENKAIGWFRQTPGSEREGVLCISKSGSWTYYTDSMRGRFTISRDNAENTVYLQMDSLKPEDTAVYYCATTTAGGGLCWDGTTFSRLASSWGQGTQVTVSSGGGGSGGGGSEVQLVESGGGLVQAGDSLRLSCAASGPTFGMSAMGWFRQAPGKEREFVAAISGLGNPNYSDDVKGRFTISRENGRNTVYLQMNSLKPEDTAVYYCAQRKVYHVQGGDRPQAYDYWGQGTQVTVSSGGGGSGGGGSEVQLVESGGGLVQAGDSLRISCAASGRTLSIYSMGWFRQAPGKEREFVATIGWNSGRTFYPDSLKGRFTISRDNARNTLYLQMNNLRPEDTAVYYCAAAKGPLRLSSQADYWGQGTQVTVSS
B5 gave an average neutralization titer [1] of 25.5 nM, an average neutralization titer [2] of 21.6 nM and an average neutralization titer [3] of 30.4 nM.

B6: MD2314 (bispecific antibody)
chain: EVQLVESGGGLVQAGDSLRLSCAASGPTFGMSAMGWFRQAPGKEREFVAAISGLGNPNYSDDVKGRFTISRENGRNTVYLQMNSLKPEDTAVYYCAQRKVYHVQGGDRPQAYDYWGQGTQVTVSSGGGGSGGGGSEVQLVESGGGLVQAGDSLRLSCAASGPTFGMSAMGWFRQAPGKEREFVAAISGLGNPNYSDDVKGRFTISRENGRNTVYLQMNSLKPEDTAVYYCAQRKVYHVQGGDRPQAYDYWGQGTQVTVSSGGGGSGGGGSEVQLVESGGGLVQPGGSLRLSCAATGFTLENKAIGWFRQTPGSEREGVLCISKSGSWTYYTDSMRGRFTISRDNAENTVYLQMDSLKPEDTAVYYCATTTAGGGLCWDGTTFSRLASSWGQGTQVTVSS
B6 showed an average neutralization titer [1] greater than 1000 nM, an average neutralization titer [2] of 6.5 nM and an average neutralization titer [3] greater than 1000 nM.

B7: MD2307 (bispecific antibody)
chain: EVQLVESGGGLVQPGGSLRLSCAATGFTLENKAIGWFRQTPGSEREGVLCISKSGSWTYYTDSMRGRFTISRDNAENTVYLQMDSLKPEDTAVYYCATTTAGGGLCWDGTTFSRLASSWGQGTQVTVSSGGGGSGGGGSEVQLVESGGGLVQAGDSLRISCAASGRTLSIYSMGWFRQAPGKEREFVATIGWNSGRTFYPDSLKGRFTISRDNARNTLYLQMNNLRPEDTAVYYCAAAKGPLRLSSQADYWGQGTQVTVSSGGGGSGGGGSEVQLVESGGGLVQAGDSLRLSCAASGPTFGMSAMGWFRQAPGKEREFVAAISGLGNPNYSDDVKGRFTISRENGRNTVYLQMNSLKPEDTAVYYCAQRKVYHVQGGDRPQAYDYWGQGTQVTVSS
For B7, the average neutralization titer [1] was 30.4 nM, the average neutralization titer [2] was 21.6 nM and the average neutralization titer [3] was 18.1 nM.

B8: MD2304 (bispecific antibody)
chain: EVQLVESGGGLVQPGGSLRLSCAATGFTLENKAIGWFRQTPGSEREGVLCISKSGSWTYYTDSMRGRFTISRDNAENTVYLQMDSLKPEDTAVYYCATTTAGGGLCWDGTTFSRLASSWGQGTQVTVSSGGGGSGGGGSEVQLVESGGGLVQPGGSLRLSCAVSISIFDIYAMDWYRQAPGKQRDLVATSFRDGSTNYADSVKGRFTISRDNAKNTLYLQMNSLKPEDTAVYLCHVSLYRDPLGVAGGMGVYWGKGALVTVSSGGGGSGGGGSEVQLVESGGGLVQPGGSLRLSCAVSISIFDIYAMDWYRQAPGKQRDLVATSFRDGSTNYADSVKGRFTISRDNAKNTLYLQMNSLKPEDTAVYLCHVSLYRDPLGVAGGMGVYWGKGALVTVSS
Work on B8 yielded an average neutralization titer [6] of 20.6 nM and an average neutralization titer [7] of 18.2 nM.

B9: MD2309 (bispecific antibody)
chain: EVQLVESGGGLVQAGDSLRISCAASGRTLSIYSMGWFRQAPGKEREFVATIGWNSGRTFYPDSLKGRFTISRDNARNTLYLQMNNLRPEDTAVYYCAAAKGPLRLSSQADYWGQGTQVTVSSGGGGSGGGGSEVQLVESGGGLVQAGDSLRLSCAASGPTFGMSAMGWFRQAPGKEREFVAAISGLGNPNYSDDVKGRFTISRENGRNTVYLQMNSLKPEDTAVYYCAQRKVYHVQGGDRPQAYDYWGQGTQVTVSSGGGGSGGGGSEVQLVESGGGLVQPGGSLRLSCAATGFTLENKAIGWFRQTPGSEREGVLCISKSGSWTYYTDSMRGRFTISRDNAENTVYLQMDSLKPEDTAVYYCATTTAGGGLCWDGTTFSRLASSWGQGTQVTVSS
B9 was tested, and the average neutralization titer [1] was 12.8 nM, the average neutralization titer [2] was 12.8 nM and the average neutralization titer [3] was 9.1 nM.

B10: SD1036 + SD1038 (protein)
VHH 1: EVQLVESGGGLVQAGGSLKLSCAASGRTYAMGWFRQAPGKEREFVAHINALGTRTYYSDSVKGRFTISRDNAKNTEYLEMNNLKPEDTAVYYCTAQGQWRAAPVAVAAEYEFWGQGTQVTVSS
VHH 2: EVQLVESGGGLVQPGGSLRLSCAVSISIFDIYAMDWYRQAPGKQRDLVATSFRDGSTNYADSVKGRFTISRDNAKNTLYLQMNSLKPEDTAVYLCHVSLYRDPLGVAGGMGVYWGKGALVTVSS
For B10, the neutralization titer [2] was 19.3 nM, the neutralization titer [8] was 6.8 nM and the neutralization titer [7] was less than 1000 nM.

B11: MD2305 (bispecific antibody)
chain: EVQLVESGGGLVQPGGSLRLSCAVSISIFDIYAMDWYRQAPGKQRDLVATSFRDGSTNYADSVKGRFTISRDNAKNTLYLQMNSLKPEDTAVYLCHVSLYRDPLGVAGGMGVYWGKGALVTVSSGGGGSGGGGSEVQLVESGGGLVQPGGSLRLSCAATGFTLENKAIGWFRQTPGSEREGVLCISKSGSWTYYTDSMRGRFTISRDNAENTVYLQMDSLKPEDTAVYYCATTTAGGGLCWDGTTFSRLASSWGQGTQVTVSSGGGGSGGGGSEVQLVESGGGLVQPGGSLRLSCAVSISIFDIYAMDWYRQAPGKQRDLVATSFRDGSTNYADSVKGRFTISRDNAKNTLYLQMNSLKPEDTAVYLCHVSLYRDPLGVAGGMGVYWGKGALVTVSS
For B11, the average neutralization titer [6] was 4.3 nM and the average neutralization titer [7] was 21.7 nM.

B12: MD2302 (bispecific antibody)
chain: EVQLVESGGGLVQPGGSLRLSCAVSISIFDIYAMDWYRQAPGKQRDLVATSFRDGSTNYADSVKGRFTISRDNAKNTLYLQMNSLKPEDTAVYLCHVSLYRDPLGVAGGMGVYWGKGALVTVSSGGGGSGGGGSEVQLVESGGGLVQPGGSLRLSCAATGFTLENKAIGWFRQTPGSEREGVLCISKSGSWTYYTDSMRGRFTISRDNAENTVYLQMDSLKPEDTAVYYCATTTAGGGLCWDGTTFSRLASSWGQGTQVTVSSGGGGSGGGGSEVQLVESGGGLVQAGGSLKLSCAASGRTYAMGWFRQAPGKEREFVAHINALGTRTYYSDSVKGRFTISRDNAKNTEYLEMNNLKPEDTAVYYCTAQGQWRAAPVAVAAEYEFWGQGTQVTVSS
B12 was tested, and the average neutralization titer [5] was 412 nM, the average neutralization titer [6] was 14.7 nM and the average neutralization titer [7] was 34.7 nM.
